The test system of data set [1] is trypsin, chymotrypsin, elastase and papain. The data set is described as follows: Limited proteolysis of rBCLA. It is filed as physicochemical. The note with it: 1/30 w/w, up to 50 minutes at 37° C. On the procedure: Limited proteolysis to find antigenic sub-fragments within Cter-BCLA. To recover a highly antigenic sub-fragment of Cter-BCLA, a limited proteolysis on the purified sample was undertaken using trypsin, chymotrypsin, elastase and papain (all Sigma Aldrich). Reactions were carried out in 30 μl reaction volume in 50 mM Tris pH 8.0, 150 mM NaCl, 5 mM BME and 0.5 mM MgCl2. In each reaction, 3 μg of Cter-BCLA were digested by 100 ng of protease (1/30 w/w) over the course of 50 minutes at 37° C. Reactions were stopped at each time point by the addition of 10 μl of SDS PAGE loading buffer followed by 5 minutes heating at 95° C. then kept on ice until loading on the gel.

Data set [2] deals with anti-T. gondii IgG antibodies of mice. As to the kind of experiment: Western-blot BCLA serological testing on mice sera. It is filed as binding.
The nature of data set [3]: Solubility of rBCLA recombinantly expressed in E. coli. To be noted: native, N-terminal poly-histidine tag. It counts as physicochemical. On the procedure:
Recombinant expression. Transformation was performed using BL21(DE3)-CodonPlus—RIL chemically competent E. coli (Stratagene) which were incubated on ice with 1 μg of the pet30-(a) Cter-BCLA plasmid for 10 minutes, heat shocked at 42° C. for 45 seconds, pre-incubated 45 min in LB at 37° C. then spread on a LB agar plate containing Kanamycin (Kan) and Chloramphenicol (Chlo) and incubated for 12 h. A single colony was then picked to inoculate a LB/Kan/Chlo 50 ml pre-culture grown for 16 h. 5 ml of grown pre-culture were then used to inoculate 1 L flasks of Terrific Broth medium (Formedium) containing Chlo/Kan. Cultures were grown at 37° C. until reaching an OD600 of 0.5-0.8 then induced by adding 0.7 mM IPTG (VWR) and further incubated at 18° C. ON. After incubation, cells were centrifuged 25 min at 3000 G, the supernatant was discarded and the pellet flash frozen in liquid nitrogen and kept at −80° C.
Lysis. Purification was performed on 3 pellets of 1 L cultures, each resuspended in 50 ml of lysis buffer containing 600 mM NaCl, 50 mM Tris pH 8, 5 mM Beta-mercaptoethanol (BME), 0.2% w/v N-Lauryl Sarkozine and 1 Complete anti protease cocktail (Roche) tab per 50 ml. Lysis was performed using a 10 mini-pulsed sonication (15 sec ON, 30 sec OFF) at 50° amplitude over ice with the lysate never reaching a temperature over 13° C. […]

For data set [4], the system named is anti-T. gondii IgG antibodies of mice. As to the kind of experiment: Western-blot BCLA serological testing on mice sera. It is filed as binding. As to the method: Mice and Experimental Infection. 6-weeks-old BALBC/c, CBA, NMRI or Swiss mice were obtained from Janvier Laboratories (Le Genest-Saint-Isle, France). Mouse care and experimental procedures were performed under pathogen free conditions in accordance with established institutional guidance and approved protocols from the Institutional Animal Care and Use Committee of the University Grenoble Alpes (agreement no B3851610006). Female mice were used for all studies. For intraperitoneal (i.p.) infection, tachyzoites were grown in vitro and extracted from host cells by passage through a 27-gauge needle, washed three times in PBS, and quantified with a haemocytometer. Parasites were diluted in Hank's Balanced Salt Solution (Life), and mice were inoculated by the i.p. route with tachyzoites of each strain (in 200 μl) using a 28-gauge needle. For oral gavage of infective cysts, brains from chronically infected mice (76k-GFP-luc and 76k-GFP-luc-Δbcla) were crushed in PBS, the number of cysts was microscopically quantified and the mice were forced fed with 100 μl of brain homogenate containing 20 to 40 cysts using ball-tipped feeding needle. Blood was collected by caudal puncture or by intracardiac puncture when the mice were euthanised. Animal euthanasia was completed in an approved CO2 chamber. For histological analysis of ileum and immunolabeling on histological sections of brains or, the ilea and brains were removed from mice, entirely embedded in a paraffin wax block and cut in 5 μm-thick layers using microtome. For statistical analysis of mice survival data, the Mantel-Cox and Gehan-Breslow-Wilcoxon tests were used.
Western-blot BCLA serological testing. Single western blot strips were prepared using 15 well 4-12% NuPage gels (Life technologies) loaded with 5 μl of sample at 0.1 mg/ml. The gels were run at 185 v for 40 minutes in MES buffer then electro-transferred at 105 v for 1.5 h on PVDF membranes. The transferred lanes were then cut-out into individualized strips. The strips were then blocked in TTBS with 5% powdered milk (w/v) for 1 h. Serum testing was then performed in TTBS with a dilution of 1/400 of the serum for 1 h at 4° C. The strips were then washed 3 times in TTBS and further incubated 1 h with a 1/7500 dilution of secondary antibody targeting either mouse IgGs or human IgGs and coupled with a phosphatase alkaline enzyme (Promega). […] Bands in the positive sera appear within 1 to 5 minutes. In parallel to the serum testing, a single strip was always used as an internal antigen control for each blot set. After blocking, this strip was incubated for 1 h with a peroxidase coupled anti poly-histidine monoclonal antibody (Sigma) diluted 1/2000 in TTBS. […] For each series of i.p. or orally infected mice, a serum of at least on mouse of each series was checked for Toxoplasma antibodies using Western blot analysis of the IgG immune response using the commercial kit LD bio Toxoplasma mouse IgG (LD bio), with the same anti-mouse IgG-alkaline phosphatase conjugate and chromogenic substrate previously described for BCLA.
This is another data set of the same source.

B1: rBCLA: C-terminal antigenic domain, res 1089-1275 of BCLA (SEQ ID NO:2), expressed in E. coli as recombinant protein (protein)
chain: MIPGVGDKTEASVLDSIENAVQKVLENLLKAAAGELQPAEAEEARLLVADLKAVVDTAEQVRVEGEAFFRASVDLYEAVKNLRDSEEKLRPLTKGELVDVVRQFLATQIFVQDRASAFLRVFERLAELLAAEQMKAVFAMVEEGVSSSERVARVAGELVPMMKKDRERRYGDLVAVTSWFMRRMEHI
modifications: Synthetic C-terminal antigenic domain (res 1089-1275)
B1: the “degradation by protease (SDS PAGE)” value is recorded as “quickly degraded” in data set [1] (chymotrypsin); “partially degraded” in data set [1] (elastase, trypsin and papain, stable fragments around the 17-kDa marker). Also, the “reactivity of rBCLA with mice sera (immunoblot)” value (“reactivity … (immunoblot)” below) in data set [2] (FIG. 8c: C57BL/6 mice, oral 47 cysts 76k-GFP-luc or 76k-GFP-luc-Δbcla (type II), 8 days (acute)) was “not reacting”; in data set [4] (FIG. 8a: NMRI mice, i.p. 10^4 tachyzoites COUG and COUG-Δmyr1, 7 days (acute)), “not reacting”; in data set [4] (FIG. 8b: CBA mice, i.p. 10^3 tachyzoites RH (type I), 7 days (acute)), “not reacting”; in data set [4] (FIG. 9a: Balb/c mice, i.p. 10^3 to 10^6 tachyzoites PruA7 (type II), 42 days) it was “reacting quite proportionally”; in data set [4] (FIG. 9b: CBA mice, i.p. 10^6 tachyzoites ME49 (type II), 80 days), “strongly reacting”; in data set [4] (FIG. 9c: NMRI mice, oral 20 cysts 76k-GFP-luc (type II), 22 months) it was “strongly reacting”. Besides, the “reactivity … (immunoblot)” value was “very slightly reacting” in data set [4] (FIG. 9e: CBA mice, i.p. 10^3 tachyzoites RH (type I) followed by pyrimethamine or sulfadiazine treatment, 22 days); “not reacting” in data set [4] (FIG. 9f: NMRI mice, i.p. 10^6 tachyzoites CTG (type III), 42 days); “not reacting” in data set [4] (FIG. 9g: NMRI mice, i.p. 10^6 tachyzoites PruΔku80 (type II), 42 days); “strongly reacting” in data set [4] (FIG. 11a: Swiss mice i.p. infected with T. gondii PCR positive human amniotic fluid (confirmed congenital toxoplasmosis)); “strongly reacting” in data set [4] (FIG. 9h: Balb/c mice, i.p. 10^5 tachyzoites 76k-GFP-luc (type II), reactivating or not with corticosteroids, 42 days); “strongly reacting” in data set [4] (FIG. 9d: Balb/c mice, i.p. 10^6 tachyzoites 76k-GFP-luc (type II), 21 days). Further, the “reactivity … (immunoblot)” value in data set [4] (FIG. 9d: Balb/c mice, i.p. 10^6 tachyzoites 76k-GFP-luc-Δbcla (type II), 21 days) was “barely reacting”. Moreover, in data set [2] (mice sera, data not shown), the “reactivity of rBCLA with anti-T. gondii IgM and IgA” value is “not reacting”. Besides, the “solubility on expression in E. coli” value in data set [3] is “natively insoluble”.
